From patent US20200316195A1 (OSSIANIX, published 2020)

Tests used:
[1] = biological target: T1, recombinant human transferrin receptor 1 (rhTfR-1) (human, UniProt P02786 89-760); assay: ELISA, purified VNAR monomer on plate-adsorbed rhTfR-1, HRP anti-FLAG [panel HUMAN TfR BINDING]
T1 construct: extracellular domain; also called human TfR-1; human TfR1
Description: (§1) VNARs were purified from 500 mL bacterial cultures which were grown in auto-induction medium (Novagen) and periplasmic fractions were extracted by osmotic shock by resuspending bacteria in TES buffer (50 mM Tris, 1 mM EDTA, 20% Sucrose) mixed with an equal volume of TES diluted 1:5 in water. After 30 minutes on ice, lysates were clarified by centrifugation and the salt concentrations were adjusted to 500 mM NaCl and 10 mM imidazole in 1×PBS. Periplasmic extracts were then purified with Nickel-Sepharose resin (Qiagen), washed in 1×PBS, 10 mM imidazole, 500 mM NaCl, and then eluted in 1×PBS, 500 mM imidazole, 500 mM NaCl. The purified protein was then buffer-exchanged against PBS and concentrated by centrifugation with Vivaspin 20 filters (Sartorius, MWCO 5000). Endotoxin was removed using VivaPure Q mini column (Sartorius) and the protein was sterile filtered (0.22 μm). After estimating the protein concentration using Bradford reagent (Pierce), the purified protein was stored in frozen aliquots. EC50 binding curves of purified VNAR monomers to immobilized to human or mouse TfR-1 ([…]) were determined by standard protein ELISA an HRP-conjugate anti-FLAG M2 antibody. For pH binding sensitivity testing, purified monomer was bound at pH7 and then washed 3 times for 3 min at either pH5.2 or pH7.2.

[2] = biological target: T2, recombinant mouse transferrin receptor 1 (rmTfR-1) (mouse, UniProt Q62351 89-763); assay: ELISA, monomer bound at pH 7 to rmTfR-1, washed 3 x 3 min at pH 7.2 or pH 5.2, HRP anti-FLAG [panel VNAR H11 on mTfR-1]
T2 construct: extracellular domain; also called mouse TfR-1
Description: as §1

[3] = biological target: T2, recombinant mouse transferrin receptor …; assay: ELISA, purified VNAR monomer on plate-adsorbed rmTfR-1, HRP anti-FLAG [panel MOUSE TfR BINDING]
Description: as §1

[4] = biological target: T2, recombinant mouse transferrin receptor …; assay: competitive phage ELISA
[5] = biological target: T1, recombinant human transferrin receptor …; assay: ELISA, monomer bound at pH 7 to rhTfR-1, washed 3 x 3 min at pH 7.2 or pH 5.2, HRP anti-FLAG [panel VNAR G02 on hTfR-1]
Description: as §1

[6] = biological target: T2, recombinant mouse transferrin receptor …; assay: ELISA, monomer bound at pH 7 to rmTfR-1, washed 3 x 3 min at pH 7.2 or pH 5.2, HRP anti-FLAG [panel VNAR G02 on mTfR-1]
Description: as §1

[7] = biological target: T2, recombinant mouse transferrin receptor …; assay: ELISA; target adsorbed to plate; HRP anti-human-Fc detection
Description: (§2) To test whether the bispecific molecules retained binding to both transferrin receptor and BACE1, the purified proteins were titrated against either hTfR, mTfR, or BACE1 adsorbed to the solid phase of an ELISA plate. Binding was measured with an […] anti-human-Fc antibody (Example 8; Table 3).
(§3) To test whether the bispecific molecules retained binding to both transferrin receptor and BACE1, the purified proteins were titrated against hTfR, mTfR, or BACE1 adsorbed to the solid phase of an ELISA plate. Binding was measured with an HRP-labelled anti-human-Fc antibody.

[8] = biological target: T2, recombinant mouse transferrin receptor …; assay: EC50 on recombinant target, presumably ELISA as in Example 8B
Description: as §2, §3

[9] = biological target: T1, recombinant human transferrin receptor …; assay: ELISA on plate-coated hTfR1 (Example 15, as in Example 1D) [panel hTfR1]
Description: (§4) The binding specificity of H01-Fc and F02-Fc for hTfR-1 and hTfR-2 were determined by an ELISA as described in Example 1D. Anti-TfR-2 was used as a positive control for TfR-2 binding. […] Both H01-Fc […] F02 Fc bound hTfR-1 with high specificity (˜100 nM) and neither bound hTfR-2 (FIG. 18).

[10] = biological target: T3, human transferrin receptor 2 (hTfR-2) (human, UniProt Q9UP52 105-801, limits assumed); assay: ELISA on plate-coated hTfR2 (Example 15, as in Example 1D) [panel hTfR2]
T3 construct: also called human TfR-2
T3 sequence (looked up): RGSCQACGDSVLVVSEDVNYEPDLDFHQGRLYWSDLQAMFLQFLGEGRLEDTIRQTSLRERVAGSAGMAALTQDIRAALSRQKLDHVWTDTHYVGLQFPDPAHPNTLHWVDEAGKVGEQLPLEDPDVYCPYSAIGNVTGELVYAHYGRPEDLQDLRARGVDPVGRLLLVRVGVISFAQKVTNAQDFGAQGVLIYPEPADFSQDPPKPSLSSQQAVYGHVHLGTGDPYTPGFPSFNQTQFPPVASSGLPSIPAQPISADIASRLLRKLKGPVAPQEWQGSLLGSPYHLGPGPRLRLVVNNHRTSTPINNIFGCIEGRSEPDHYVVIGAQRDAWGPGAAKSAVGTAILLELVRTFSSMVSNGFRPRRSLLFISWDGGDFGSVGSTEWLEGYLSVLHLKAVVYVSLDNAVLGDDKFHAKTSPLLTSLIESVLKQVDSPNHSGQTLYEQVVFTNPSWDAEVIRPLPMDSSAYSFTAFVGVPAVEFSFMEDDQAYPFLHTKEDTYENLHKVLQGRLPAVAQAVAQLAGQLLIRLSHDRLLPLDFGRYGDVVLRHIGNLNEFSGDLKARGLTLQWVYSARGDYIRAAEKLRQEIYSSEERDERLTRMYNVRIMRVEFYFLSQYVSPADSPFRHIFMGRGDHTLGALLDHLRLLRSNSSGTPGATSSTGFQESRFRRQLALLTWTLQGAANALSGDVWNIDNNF
Description: as §4

[11] = biological target: T1, recombinant human transferrin receptor …; assay: competitive phage ELISA
[12] = biological target: T1, recombinant human transferrin receptor …; assay: ELISA, monomer bound at pH 7 to rhTfR-1, washed 3 x 3 min at pH 7.2 or pH 5.2, HRP anti-FLAG [panel VNAR C11 on hTfR-1]
Description: as §1

[13] = biological target: T2, recombinant mouse transferrin receptor …; assay: ELISA, monomer bound at pH 7 to rmTfR-1, washed 3 x 3 min at pH 7.2 or pH 5.2, HRP anti-FLAG [panel VNAR C11 on mTfR-1]
Description: as §1

T1 sequence (P02786 89-760): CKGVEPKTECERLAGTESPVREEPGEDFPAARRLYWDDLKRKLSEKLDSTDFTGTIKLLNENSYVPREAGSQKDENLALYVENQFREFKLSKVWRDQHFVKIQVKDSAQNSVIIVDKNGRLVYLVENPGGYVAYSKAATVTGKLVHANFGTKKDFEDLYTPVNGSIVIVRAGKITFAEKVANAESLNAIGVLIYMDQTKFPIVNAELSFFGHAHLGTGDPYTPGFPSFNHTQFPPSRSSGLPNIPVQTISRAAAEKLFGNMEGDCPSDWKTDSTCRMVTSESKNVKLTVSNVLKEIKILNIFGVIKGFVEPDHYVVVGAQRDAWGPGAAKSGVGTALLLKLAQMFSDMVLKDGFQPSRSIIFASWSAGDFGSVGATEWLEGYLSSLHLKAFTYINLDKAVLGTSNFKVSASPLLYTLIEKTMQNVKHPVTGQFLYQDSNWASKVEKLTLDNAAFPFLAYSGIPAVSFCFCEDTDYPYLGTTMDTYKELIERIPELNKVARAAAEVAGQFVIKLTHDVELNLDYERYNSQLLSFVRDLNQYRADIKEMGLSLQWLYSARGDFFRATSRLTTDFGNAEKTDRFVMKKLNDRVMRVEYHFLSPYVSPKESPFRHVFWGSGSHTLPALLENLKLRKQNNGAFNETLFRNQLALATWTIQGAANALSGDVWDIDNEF
T2 sequence (Q62351 89-763): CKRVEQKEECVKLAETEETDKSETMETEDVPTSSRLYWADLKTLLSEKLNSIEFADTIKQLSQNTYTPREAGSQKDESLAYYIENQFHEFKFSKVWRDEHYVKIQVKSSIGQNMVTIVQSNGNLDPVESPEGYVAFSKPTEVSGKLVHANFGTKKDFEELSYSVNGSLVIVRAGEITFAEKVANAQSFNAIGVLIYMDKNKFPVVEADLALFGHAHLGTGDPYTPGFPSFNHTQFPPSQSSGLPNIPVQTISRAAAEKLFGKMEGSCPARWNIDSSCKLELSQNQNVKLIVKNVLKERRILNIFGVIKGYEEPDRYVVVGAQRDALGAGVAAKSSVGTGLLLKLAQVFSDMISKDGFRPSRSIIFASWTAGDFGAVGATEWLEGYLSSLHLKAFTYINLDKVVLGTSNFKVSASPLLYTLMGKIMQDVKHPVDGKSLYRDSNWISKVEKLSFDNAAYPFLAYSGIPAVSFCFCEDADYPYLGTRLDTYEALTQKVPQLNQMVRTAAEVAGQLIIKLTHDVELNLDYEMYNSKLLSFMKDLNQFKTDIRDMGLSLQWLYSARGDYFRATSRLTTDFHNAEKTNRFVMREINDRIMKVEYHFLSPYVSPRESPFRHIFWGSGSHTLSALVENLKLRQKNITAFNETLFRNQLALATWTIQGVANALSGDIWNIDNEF

B1: VNAR H11 (VNAR)
VNAR: ARVDQTPQTITKETGESLTINCVLRDNDCALSSTYWYRKKSGSTNEERMTKGGRYVETVNSGSKSFSLRINDLTVEDSGTYRCNVYGLVDCASGMNWIDVYGGGTVVTVNA
notes: Shark VNAR single domain; not shown: FLAG tag of the pOsD2 vector
B1: binds [1]; binds [2].

B2: VNAR A03 (VNAR)
VNAR: ARVDQTPQTITKETGESLTINCVLRDRDCALSSTHWYRKKSGSTNEESIPKGGRYVETVNSGSKSFSLRINDLTVEDSGTYRCNVYSLTANWWCDVYGGGTVVTVNA
notes: as for B1
B2: binds [1]; binds [3].

B3: VNAR H01 (VNAR)
VNAR: ARVDQTPQTITKETGESLTINCVLRDSNCALSSTYWYRKKSGSTKEESISKGGRYVETVNSGSKSFSLRINDLTVEDSGTYRCNVWHDLVWSVCTTDVYGGGTVVTVNA
notes: as for B1
B3: binds [4].

B4: VNAR G02 (VNAR)
VNAR: ARVDQTPQTITKETGESLTINCVLRDRDCALSSTHWYRKKSGSTNEESISKGGRYVETVDSGSKSFSLRINDLTVEDSGTYRCNVYQSPVGRRWWCDVYGGGTVVTVNA
notes: as for B1
B4: binds [5]; binds [6].

B5: F02-hFc (bivalent F02 VNAR-hFc fusion protein) (Fc fusion)
chain: ARVDQTPQTITKETGESLTINCVLRDNDCTLSSTHWYRKKSGSTNEERISKGGRYVETVNSGSKSFSLRINDLTVEDSGTYRCNVYAMTRNWWCDVYGGGTVVTVNAASGAGGGGS
notes: VNAR fused to the N-terminus of the Fc; bivalent, about 75 kDa; also called F02-Fc; F02 Fc; not shown: human IgG1-Fc region (CH2 and CH3 domains) from a modified pFUSE-hIgG1e3-Fc2 plasmid
B5 was tested, and the EC50 [7] was 34.3 nM, the EC50 [8] was 34.2 nM and the “EC50 (read off the curve)” value [9] was roughly 20 nM. B5: no binding (tested: 10^-6 M) [10].

B6: VNAR A07 (VNAR)
VNAR: ARVDQTPQTITKEEGESLTINCVLRDSSSALASTSWYRKKSGSTREETISKGGRYVETVNSGSKSFSLRINDLTVEDSGTYRCNVYELVEDTSAYEIGVDVYGDGTAVTVNA
notes: Shark VNAR single domain; also called clone A07; not shown: FLAG tag of the pOsD2 vector
B6: binds [11]; binds [4].

B7: VNAR C02 (VNAR)
VNAR: ARVDQTPQTITKETGESLTINCVLRDNDCALSSTYWYRKKSGSTNEESISKGGRYVETVNSGSKSFSLRINDLTVEDSGTYRCNVYQPPSTESLYWCDVYGGGTAVTVNA
notes: as for B1
B7: binds [11]; binds [4].

B8: VNAR C11 (VNAR)
VNAR: ARVDQTPQTITKETGESLTINCVLRDKDCALSSTSWYRKKSGSTNEESISKGGRYVETVNSGSKSFSLRINDLTVEDSGTYRCNVYARPRPDNLNWCDVYGGGTAVTVNA
notes: as for B1
B8: binds [12]; binds [13].

B9: H01-Fc (bivalent VNAR-Fc fusion protein) (Fc fusion)
chain: ARVDQTPQTITKETGESLTINCVLRDSNCALSSTYWYRKKSGSTKEESISKGGRYVETVNSGSKSFSLRINDLTVEDSGTYRCNVWHDLVWSVCTTDVYGGGTVVTVNAASGAGGGGS
notes: VNAR fused to the N-terminus of the Fc; bivalent; not shown: human IgG1-Fc region (CH2 and CH3 domains) from a modified pFUSE-hIgG1e3-Fc2 plasmid
In the case of B9, the “EC50 (read off the curve)” value [9] is reported as roughly 8 nM and the binding result [10] is reported as “no binding (tested: 10^-6 M)”.
